Target: BAG3 (Bcl-2 associated athanogene protein 3) (human) (UniProt O95817)
Assay: SPR; BIACORE X; BAG3 amine-coupled to a CM5 chip (3400 RU); running buffer 10 mM HEPES pH 7.4, 150 mM NaCl, 3 mM EDTA, 0.005% P20; 10 uL/min; Langmuir 1:1 fit

Sequence of BAG3 (Bcl-2 associated athanogene protein 3), O95817 1-575 (natural protein; other documents disagree on this pair) (O95817 whole entry): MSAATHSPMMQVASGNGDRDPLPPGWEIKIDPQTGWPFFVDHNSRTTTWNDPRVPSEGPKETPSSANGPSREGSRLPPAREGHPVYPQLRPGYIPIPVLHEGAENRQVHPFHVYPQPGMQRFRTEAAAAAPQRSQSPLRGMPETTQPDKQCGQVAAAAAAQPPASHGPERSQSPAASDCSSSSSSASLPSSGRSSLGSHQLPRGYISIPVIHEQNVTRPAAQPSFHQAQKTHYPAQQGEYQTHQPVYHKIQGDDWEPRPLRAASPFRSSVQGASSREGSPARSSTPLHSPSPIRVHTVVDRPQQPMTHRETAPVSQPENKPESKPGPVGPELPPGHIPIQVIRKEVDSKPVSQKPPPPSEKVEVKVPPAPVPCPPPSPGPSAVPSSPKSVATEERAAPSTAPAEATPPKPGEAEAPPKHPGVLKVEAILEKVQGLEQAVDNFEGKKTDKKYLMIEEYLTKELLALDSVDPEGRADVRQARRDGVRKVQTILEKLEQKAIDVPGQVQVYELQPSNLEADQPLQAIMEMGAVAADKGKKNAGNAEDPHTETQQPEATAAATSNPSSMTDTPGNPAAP

Which results are given for “BAG3 (Bcl-2 associated athanogene protein 3), O95817 1-575 (natural protein; other documents disagree on this pair)”?
Ka: 5.3e+07 M⁻¹; Kd: 19 nM; koff: 0.0003 s⁻¹; kon: 16000 M⁻¹ s⁻¹

— PMC10273338
